This note sets out measurements from IntAct's records for PubMed 31515488.

The chains are these.
B1: Katanin p60 ATPase-containing subunit A-like 1 (Homo sapiens), Q9BW62 (parent)
chain: MNLAEICDNAKKGREYALLGNYDSSMVYYQGVMQQIQRHCQSVRDPAIKGKWQQVRQELLEEYEQVKSIVSTLESFKIDKPPDFPVSCQDEPFRDPAVWPPPVPAEHRAPPQIRRPNREVRPLRKEMAGVGARGPVGRAHPISKSEKPSTSRDKDYRARGRDDKGRKNMQDGASDGEMPKFDGAGYDKDLVEALERDIVSRNPSIHWDDIADLEEAKKLLREAVVLPMWMPDFFKGIRRPWKGVLMVGPPGTGKTMLAKAVATECGTTFFNVSSSTLTSKYRGESEKLVRLLFEMARFYAPTTIFIDEIDSICSRRGTSDEHEASRRVKSELLIQMDGVGGALENDDPSKMVMVLAATNFPWDIDEALRRRLEKRIYIPLPTAKGRAELLKINLREVELDPDIQLEDIAEKIEGYSGADITNVCRDASLMAMRRRINGLSPEEIRALSKEELQMPVTKGDFELALKKIAKSVSAADLEKYEKWMVEFGSA
partner: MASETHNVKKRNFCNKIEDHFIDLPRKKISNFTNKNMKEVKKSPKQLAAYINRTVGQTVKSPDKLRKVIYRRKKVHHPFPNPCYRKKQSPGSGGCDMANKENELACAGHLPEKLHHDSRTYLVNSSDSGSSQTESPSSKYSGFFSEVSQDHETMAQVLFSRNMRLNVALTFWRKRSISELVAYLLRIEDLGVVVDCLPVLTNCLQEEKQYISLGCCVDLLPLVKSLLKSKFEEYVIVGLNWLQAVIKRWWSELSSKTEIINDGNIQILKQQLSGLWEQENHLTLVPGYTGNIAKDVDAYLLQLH
B2: "N-acyl-aromatic-L-amino acid amidohydrolase (carboxylate-forming)" (Homo sapiens), Q96HD9 (parent)
chain: MCSLPVPREPLRRVAVTGGTHGNEMSGVYLARHWLHAPAELQRASFSAVPVLANPAATSGCRRYVDHDLNRTFTSSFLNSRPTPDDPYEVTRARELNQLLGPKASGQAFDFVLDLHNTTANMGTCLIAKSSHEVFAMHLCRHLQLQYPELSCQVFLYQRSGEESYNLDSVAKNGLGLELGPQPQGVLRADIFSRMRTLVATVLDFIELFNQGTAFPAFEMEAYRPVGVVDFPRTEAGHLAGTVHPQLQDRDFQPLQPGAPIFQMFSGEDLLYEGESTVYPVFINEAAYYEKGVAFVQTEKFTFTVPAMPALTPAPSPAS
B3: Conserved oligomeric Golgi complex subunit 2 (Homo sapiens), Q14746 (parent)
chain: MEKSRMNLPKGPDTLCFDKDEFMKEDFDVDHFVSDCRKRVQLEELRDDLELYYKLLKTAMVELINKDYADFVNLSTNLVGMDKALNQLSVPLGQLREEVLSLRSSVSEGIRAVDERMSKQEDIRKKKMCVLRLIQVIRSVEKIEKILNSQSSKETSALEASSPLLTGQILERIATEFNQLQFHAVQSKGMPLLDKVRPRIAGITAMLQQSLEGLLLEGLQTSDVDIIRHCLRTYATIDKTRDAEALVGQVLVKPYIDEVIIEQFVESHPNGLQVMYNKLLEFVPHHCRLLREVTGGAISSEKGNTVPGYDFLVNSVWPQIVQGLEEKLPSLFNPGNPDAFHEKYTISMDFVRRLERQCGSQASVKRLRAHPAYHSFNKKWNLPVYFQIRFREIAGSLEAALTDVLEDAPAESPYCLLASHRTWSSLRRCWSDEMFLPLLVHRLWRLTLQILARYSVFVNELSLRPISNESPKEIKKPLVTGSKEPSITQGNTEDQGSGPSETKPVVSISRTQLVYVVADLDKLQEQLPELLEIIKPKLEMIGFKNFSSISAALEDSQSSFSACVPSLSSKIIQDLSDSCFGFLKSALEVPRLYRRTNKEVPTTASSYVDSALKPLFQLQSGHKDKLKQAIIQQWLEGTLSESTHKYYETVSDVLNSVKKMEESLKRLKQARKTTPANPVGPSGGMSDDDKIRLQLALDVEYLGEQIQKLGLQASDIKSFSALAELVAAAKDQATAEQP
B4: Asc-type amino acid transporter 1 (Homo sapiens), Q9NS82 (parent)
chain: MAGHTQQPSGRGNPRPAPSPSPVPGTVPGASERVALKKEIGLLSACTIIIGNIIGSGIFISPKGVLEHSGSVGLALFVWVLGGGVTALGSLCYAELGVAIPKSGGDYAYVTEIFGGLAGFLLLWSAVLIMYPTSLAVISMTFSNYVLQPVFPNCIPPTTASRVLSMACLMLLTWVNSSSVRWATRIQDMFTGGKLLALSLIIGVGLLQIFQGHFEELRPSNAFAFWMTPSVGHLALAFLQGSFAFSGWNFLNYVTEEMVDARKNLPRAIFISIPLVTFVYTFTNIAYFTAMSPQELLSSNAVAVTFGEKLLGYFSWVMPVSVALSTFGGINGYLFTYSRLCFSGAREGHLPSLLAMIHVRHCTPIPALLVCCGATAVIMLVGDTYTLINYVSFINYLCYGVTILGLLLLRWRRPALHRPIKVNLLIPVAYLVFWAFLLVFSFISEPMVCGVGVIIILTGVPIFFLGVFWRSKPKCVHRLTESMTHWGQELCFVVYPQDAPEEEENGPCPPSLLPATDKPSKPQ
partner: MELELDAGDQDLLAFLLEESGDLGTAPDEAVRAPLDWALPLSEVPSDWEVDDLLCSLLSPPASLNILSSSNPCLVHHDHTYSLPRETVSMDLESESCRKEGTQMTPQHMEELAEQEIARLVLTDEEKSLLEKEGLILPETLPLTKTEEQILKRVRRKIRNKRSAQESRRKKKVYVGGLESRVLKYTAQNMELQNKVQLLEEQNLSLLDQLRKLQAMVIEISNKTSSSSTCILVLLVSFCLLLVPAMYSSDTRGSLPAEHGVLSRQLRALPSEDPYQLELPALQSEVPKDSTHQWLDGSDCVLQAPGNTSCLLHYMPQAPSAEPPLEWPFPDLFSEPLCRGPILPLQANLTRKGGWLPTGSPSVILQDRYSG
B5: Regulator of G-protein signaling 20 (Homo sapiens), O76081 (parent)
chain: MPQLSQDNQECLQKHFSRPSIWTQFLPLFRAQRYNTDIHQITENEGDLRAVPDIKSFPPAQLPDSPAAPKLFGLLSSPLSSLARFFSHLLRRPPPEAPRRRLDFSPLLPALPAARLSRGHEELPGRLSLLLGAALALPGRPSGGRPLRPPHPVAKPREEDATAGQSSPMPQMGSERMEMRKRQMPAAQDTPGAAPGQPGAGSRGSNACCFCWCCCCSCSCLTVRNQEDQRPTIASHELRADLPTWEESPAPTLEEVNAWAQSFDKLMVTPAGRNAFREFLRTEFSEENMLFWMACEELKKEANKNIIEEKARIIYEDYISILSPKEVSLDSRVREVINRNMVEPSQHIFDDAQLQIYTLMHRDSYPRFMNSAVYKDLLQSLSEKSIEA
B6: Cdc42 effector protein 4 (Homo sapiens), Q9H3Q1 (parent)
chain: MPILKQLVSSSVHSKRRSRADLTAEMISAPLGDFRHTMHVGRAGDAFGDTSFLNSKAGEPDGESLDEQPSSSSSKRSLLSRKFRGSKRSQSVTRGEREQRDMLGSLRDSALFVKNAMSLPQLNEKEAAEKGTSKLPKSLSSSPVKKANDGEGGDEEAGTEEAVPRRNGAAGPHSPDPLLDEQAFGDLTDLPVVPKATYGLKHAESIMSFHIDLGPSMLGDVLSIMDKEEWDPEEGEGGYHGDEGAAGTITQAPPYAVAAPPLARQEGKAGPDLPSLPSHALEDEGWAAAAPSPGSARSMGSHTTRDSSSLSSCTSGILEERSPAFRGPDRARAAVSRQPDKEFSFMDEEEEDEIRV
B7: Mediator of RNA polymerase II transcription subunit 18 (Homo sapiens), Q9BUE0 (parent)
chain: MEAPPVTMMPVTGGTINMMEYLLQGSVLDHSLESLIHRLRGLCDNMEPETFLDHEMVFLLKGQQASPFVLRARRSMDRAGAPWHLRYLGQPEMGDKNRHALVRNCVDIATSENLTDFLMEMGFRMDHEFVAKGHLFRKGIMKIMVYKIFRILVPGNTDSTEALSLSYLVELSVVAPAGQDMVSDDMKNFAEQLKPLVHLEKIDPKRLM
partner: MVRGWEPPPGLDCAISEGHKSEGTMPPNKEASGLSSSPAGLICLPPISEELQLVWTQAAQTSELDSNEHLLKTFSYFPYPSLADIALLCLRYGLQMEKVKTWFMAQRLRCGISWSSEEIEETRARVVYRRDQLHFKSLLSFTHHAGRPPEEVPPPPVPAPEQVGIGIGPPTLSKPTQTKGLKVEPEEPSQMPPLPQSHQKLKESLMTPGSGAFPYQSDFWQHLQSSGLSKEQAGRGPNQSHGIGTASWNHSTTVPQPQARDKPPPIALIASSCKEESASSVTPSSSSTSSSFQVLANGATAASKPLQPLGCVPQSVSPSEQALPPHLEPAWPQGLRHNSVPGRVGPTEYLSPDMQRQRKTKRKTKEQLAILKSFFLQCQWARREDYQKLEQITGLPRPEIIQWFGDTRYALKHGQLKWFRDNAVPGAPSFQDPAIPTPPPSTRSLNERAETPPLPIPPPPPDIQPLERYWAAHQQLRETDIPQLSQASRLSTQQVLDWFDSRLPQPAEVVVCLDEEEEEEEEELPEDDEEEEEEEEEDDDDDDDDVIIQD
B8: Phospholipid scramblase 4 (Homo sapiens), Q9NRQ2 (parent)
chain: MSGVVPTAPEQPAGEMENQTKPPDPRPDAPPEYNSHFLPGPPGTAVPPPTGYPGGLPMGYYSPQQPSTFPLYQPVGGIHPVRYQPGKYPMPNQSVPITWMPGPTPMANCPPGLEYLVQLDNIHVLQHFEPLEMMTCFETNNRYDIKNNSDQMVYIVTEDTDDFTRNAYRTLRPFVLRVTDCMGREIMTMQRPFRCTCCCFCCPSARQELEVQCPPGVTIGFVAEHWNLCRAVYSIQNEKKENVMRVRGPCSTYGCGSDSVFEVKSLDGISNIGSIIRKWNGLLSAMADADHFDIHFPLDLDVKMKAMIFGACFLIDFMYFERSPPQRSR

Variants of B1 are the subject of one assay. To be noted: with ktbl1_human KATNBL1, Q9H079.
As to C424S, the “effect of a mutation on the interaction” value is reported as “with no effect”.

In another assay the parent is B2. To be noted: with gors2_human GORASP2, Q9H8Y8.
On to R8Q, for which the “effect of a mutation on the interaction” value is “with no effect”.

In a further assay the parent is B3. As to conditions: with mtus2_human MTUS2, Q5JR59.
Target sequence in this assay (Q5JR59 whole entry): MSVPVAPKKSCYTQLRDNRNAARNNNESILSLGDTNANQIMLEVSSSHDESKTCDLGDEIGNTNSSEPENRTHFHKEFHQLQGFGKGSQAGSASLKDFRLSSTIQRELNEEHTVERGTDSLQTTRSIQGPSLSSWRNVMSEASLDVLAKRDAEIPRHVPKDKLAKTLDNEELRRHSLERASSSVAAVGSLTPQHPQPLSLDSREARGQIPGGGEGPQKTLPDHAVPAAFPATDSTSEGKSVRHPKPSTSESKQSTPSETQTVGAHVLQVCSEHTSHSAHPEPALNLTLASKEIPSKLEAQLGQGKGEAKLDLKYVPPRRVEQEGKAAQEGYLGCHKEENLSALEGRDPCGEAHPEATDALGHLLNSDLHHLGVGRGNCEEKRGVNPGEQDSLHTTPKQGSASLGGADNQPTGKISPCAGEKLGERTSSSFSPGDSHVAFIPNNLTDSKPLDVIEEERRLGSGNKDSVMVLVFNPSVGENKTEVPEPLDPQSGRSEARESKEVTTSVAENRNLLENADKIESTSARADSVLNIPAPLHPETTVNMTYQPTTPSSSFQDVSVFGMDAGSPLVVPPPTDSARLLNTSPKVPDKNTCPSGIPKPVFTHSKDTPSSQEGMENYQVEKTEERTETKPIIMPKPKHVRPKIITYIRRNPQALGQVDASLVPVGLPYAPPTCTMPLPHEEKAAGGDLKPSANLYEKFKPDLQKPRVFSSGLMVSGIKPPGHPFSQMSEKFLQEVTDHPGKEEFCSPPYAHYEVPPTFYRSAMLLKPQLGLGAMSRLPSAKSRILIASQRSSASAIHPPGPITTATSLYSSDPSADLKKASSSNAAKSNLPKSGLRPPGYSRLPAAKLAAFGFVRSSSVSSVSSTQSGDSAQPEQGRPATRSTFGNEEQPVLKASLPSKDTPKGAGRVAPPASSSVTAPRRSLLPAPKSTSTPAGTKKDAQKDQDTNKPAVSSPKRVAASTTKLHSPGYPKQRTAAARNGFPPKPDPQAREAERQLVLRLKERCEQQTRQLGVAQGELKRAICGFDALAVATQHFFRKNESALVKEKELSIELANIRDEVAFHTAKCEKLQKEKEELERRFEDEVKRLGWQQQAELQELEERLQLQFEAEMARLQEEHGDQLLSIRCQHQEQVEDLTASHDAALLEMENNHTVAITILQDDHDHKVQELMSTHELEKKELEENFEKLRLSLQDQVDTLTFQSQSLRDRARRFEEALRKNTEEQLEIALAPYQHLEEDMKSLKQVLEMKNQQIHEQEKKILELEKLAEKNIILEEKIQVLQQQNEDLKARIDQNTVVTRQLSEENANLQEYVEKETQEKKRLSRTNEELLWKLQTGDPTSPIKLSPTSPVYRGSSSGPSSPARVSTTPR
On to V589I, for which the “effect of a mutation on the interaction” value is listed as “with no effect”.

Another assay covers variants of B4. As to conditions: with creb3_human CREB3, O43889.
As for R413Q, the “effect of a mutation on the interaction” value is “with no effect”. As for R267H, the “effect of a mutation on the interaction” value is reported as “with no effect”.

The variants in a further assay derive from B5. As to conditions: with otx1_human OTX1, P32242.
Sequence of otx1_human OTX1, P32242 (P32242 whole entry): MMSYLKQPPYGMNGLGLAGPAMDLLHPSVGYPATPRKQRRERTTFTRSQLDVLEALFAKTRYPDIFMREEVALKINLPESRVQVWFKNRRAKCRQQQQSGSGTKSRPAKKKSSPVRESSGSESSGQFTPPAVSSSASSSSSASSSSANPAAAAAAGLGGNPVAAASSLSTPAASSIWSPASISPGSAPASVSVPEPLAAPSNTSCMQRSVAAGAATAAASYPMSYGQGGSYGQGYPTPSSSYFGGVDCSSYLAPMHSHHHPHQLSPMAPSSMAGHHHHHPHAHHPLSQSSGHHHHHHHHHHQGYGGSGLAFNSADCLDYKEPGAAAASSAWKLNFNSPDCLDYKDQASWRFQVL
Consider H347Y, for which the “effect of a mutation on the interaction” value is “with no effect”.

A further assay covers variants of B5. As to conditions: with co8a1_human COL8A1, P27658.
Sequence of co8a1_human COL8A1, P27658 (P27658 whole entry): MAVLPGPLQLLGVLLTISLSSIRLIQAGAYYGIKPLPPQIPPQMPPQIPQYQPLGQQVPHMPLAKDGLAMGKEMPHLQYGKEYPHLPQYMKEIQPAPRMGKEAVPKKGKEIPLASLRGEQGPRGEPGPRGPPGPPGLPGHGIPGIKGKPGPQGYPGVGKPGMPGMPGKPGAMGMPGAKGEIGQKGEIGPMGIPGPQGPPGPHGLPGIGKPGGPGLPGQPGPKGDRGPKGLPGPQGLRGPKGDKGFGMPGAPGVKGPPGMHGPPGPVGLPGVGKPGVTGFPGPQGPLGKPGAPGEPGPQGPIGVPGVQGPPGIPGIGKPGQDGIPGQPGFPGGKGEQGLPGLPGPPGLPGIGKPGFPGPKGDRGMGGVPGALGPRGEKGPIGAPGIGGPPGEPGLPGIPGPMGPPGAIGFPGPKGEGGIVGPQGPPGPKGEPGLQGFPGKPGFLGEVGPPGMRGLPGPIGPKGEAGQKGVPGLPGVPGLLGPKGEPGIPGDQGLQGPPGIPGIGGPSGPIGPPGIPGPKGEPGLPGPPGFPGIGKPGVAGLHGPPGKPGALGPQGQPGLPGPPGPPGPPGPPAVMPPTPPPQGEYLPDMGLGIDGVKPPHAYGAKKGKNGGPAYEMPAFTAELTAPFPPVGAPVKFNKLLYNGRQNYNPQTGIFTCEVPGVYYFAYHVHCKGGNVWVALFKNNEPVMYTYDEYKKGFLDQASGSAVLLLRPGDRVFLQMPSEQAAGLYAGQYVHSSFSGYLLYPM
Turning to H347Y, the “effect of a mutation on the interaction” value is “with no effect”.

The variants in a further assay derive from B5. As to conditions: with hxa1_human HOXA1, P49639.
Sequence of hxa1_human HOXA1, P49639 (P49639 whole entry): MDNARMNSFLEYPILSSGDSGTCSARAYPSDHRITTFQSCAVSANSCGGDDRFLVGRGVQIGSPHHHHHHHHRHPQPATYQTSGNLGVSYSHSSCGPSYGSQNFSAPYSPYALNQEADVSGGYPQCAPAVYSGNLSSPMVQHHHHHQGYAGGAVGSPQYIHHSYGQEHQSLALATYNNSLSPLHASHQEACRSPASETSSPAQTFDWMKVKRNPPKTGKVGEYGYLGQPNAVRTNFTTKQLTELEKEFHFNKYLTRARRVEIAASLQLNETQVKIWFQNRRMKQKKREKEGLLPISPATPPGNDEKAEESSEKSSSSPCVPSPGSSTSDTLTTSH
As for H347Y, the “effect of a mutation on the interaction” value is given as “with no effect”.

Another assay covers variants of B6. To be noted: with fam9b_human FAM9B.
As for M102V, the “effect of a mutation on the interaction” value is given as “with no effect”.

The next assay covers variants of B7. As to conditions: with homez_human HOMEZ.
Regarding M19V, the “effect of a mutation on the interaction” value was “with no effect”.

In a further assay the parent is B8. As to conditions: with pls1_human PLSCR1, O15162.
Sequence of pls1_human PLSCR1, O15162 (O15162 whole entry): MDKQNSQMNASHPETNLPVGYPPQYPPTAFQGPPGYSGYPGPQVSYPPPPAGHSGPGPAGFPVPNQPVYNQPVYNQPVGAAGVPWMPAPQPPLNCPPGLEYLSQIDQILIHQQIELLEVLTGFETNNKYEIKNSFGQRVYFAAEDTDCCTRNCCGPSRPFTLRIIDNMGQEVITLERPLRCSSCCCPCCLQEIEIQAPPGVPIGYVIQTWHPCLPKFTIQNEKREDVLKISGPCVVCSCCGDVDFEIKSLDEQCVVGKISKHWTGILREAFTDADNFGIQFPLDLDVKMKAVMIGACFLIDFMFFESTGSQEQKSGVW
As to I155V, the “effect of a mutation on the interaction” value is reported as “with no effect”.

In a further assay the parent is B8. To be noted: with mtus2_human MTUS2, Q5JR59.
Target sequence in this assay (Q5JR59 whole entry): as the sequence (Q5JR59 whole entry) above
As for I155V, the “effect of a mutation on the interaction” value is “with no effect”.

The variants in the next assay derive from B8. To be noted: with nt2na_human NOTCH2NLA.
With I155V, the “effect of a mutation on the interaction” value is on record as “with no effect”.
